We go through 4 molecules from PMC5680806 (mAbs, 2017).

B1: SJL-565-1 (antibody, V domains shown)
VH: QAYLQQSGPELVKPGASVKISCKASGYTFTDYYINWVKQRPGQGLEWIGWIYPGSGNTKYNEKFKGKATLTVDTSSSTAYMQLSSLTSEDSAVYFCARSVYDYDEDWGQGTRVTVSA
VL: DIVMTQSQKFMSTSVGDRVSVTCKASQNVGTNVAWYQQKPGQSPKALIYSASYRYSGVPDRFTGSGSGTDFTLTISNVQSEDLAEYFCQQYNSYPFTFGSGTKLEIK
B2: SJL-565-3 (antibody, V domains shown)
VH: QAYLQQSGPELVKPGASVKISCKASGYTFTDYYINWVKQRPGQGLEWIGWIYPGSGNTKYNEKFKGKATLTVDTSSSTAYMHVSSLTSEDSAVYFCSSSRYDYDEDWGQGTLVTVSA
VL: DIVMTQSQKFMSTSVGDRVSVTCKASQNVGTNVAWYQQKPGQSPKALIYSASYRYSGVPDRFTGSGSGTDFTLTISNVQSEDLAEYFCQQYNSYPFTFGSGTKLEIK
B3: Balb-1 (antibody, V domains shown)
VH: QAYLQQSGPELKKPGETVKISCKASGYTFTNYGMNWVKQAPGKGLKWMGWINTNTGEPTYAEEFKGRFAFSLETSASTAYLQINNLKNEDTATYFCASNYYWYFDVWGAGTTVTVSS
VL: DVVLTQSPATLSVTPGDSVSLSCRASQSISNNLHWYQQKSHESPRLLIKYASQSISGIPSRFSGSGSGTDFTLSINSVETEDFGMYFCQQSNSWPLTFGAGTKLELK
B4: SJL-564-1 (antibody, V domains shown)
VH: QAYLQQSGAELARPGASVKLSCKASGYTFTSYGISWVKQRTGQGLEWIGEIYPRSGNTYYNEKFKGKATLTADKSSSTAYMELRSLTSEDSAVYFCARSTYSNYVYAMDYWGQGTSVTVSS
VL: DVVLTQTPLSLPVSLGDQASISCRSSQSIVHSNGNTYLEWYLQKPGQSPKLLIYKVSNRFSGVPDRFSGSGSGTDFTLKISRVEAEDLGVYYCFQGSHVPYTFGGGTKLEIK

For this assay, the target named is recombinant programmed cell death protein 1 (PD-1) (Homo sapiens, UniProt Q15116).
Sequence of recombinant programmed cell death protein 1 (PD-1) (Q15116 25-170): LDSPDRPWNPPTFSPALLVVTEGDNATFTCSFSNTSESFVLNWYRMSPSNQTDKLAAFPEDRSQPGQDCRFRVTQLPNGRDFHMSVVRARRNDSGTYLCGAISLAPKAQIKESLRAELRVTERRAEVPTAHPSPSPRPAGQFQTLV
Consider B1, for which the binding result is on record as “binds”.

Regarding B2, the binding result is on record as “binds”. In the case of B3, the binding result is given as “binds”. As to B4, the binding result is listed as “binds”.
